What was measured:
[1] = molecular target: MarR (wild type, Escherichia coli), one subunit of the MarR homodimer (E. coli); assay: X-ray crystal structure, MarR-salicylate co-crystal
[2] = molecular target: T1, MarR (Escherichia coli, UniProt P27245); details: salicylate at millimolar concentrations; cited from earlier work
[3] = molecular target: T1, MarR; details: salicylate at millimolar concentrations; cited from earlier work; remark: listed apart in the source

T1 sequence (P27245 whole entry): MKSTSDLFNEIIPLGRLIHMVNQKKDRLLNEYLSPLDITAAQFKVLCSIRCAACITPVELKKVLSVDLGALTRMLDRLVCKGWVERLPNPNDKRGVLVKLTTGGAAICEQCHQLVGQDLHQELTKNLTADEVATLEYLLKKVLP

Compound | buried surface area (N-/C-terminal hydrophobic core) [1] [Å^2] | total buried surface area for the whole dimer [1] [Å^2] | MarR activity in vitro [2] | MarR activity in whole cells [3]
MarR (wild type, Escherichia coli), one subunit of the MarR homodimer | 3570 | 3700 | – | –
O=C([O-])c1ccccc1O.[Na+] [sodium salicylate] | – | – | inhibit MarR activity | inhibit MarR activity
